Experiments:
[1] = target: T1, full-length human OX40 expressed on HuT78 cells (HuT78/OX40) (human, UniProt P43489 29-277); assay: FACS; cells not named on the sheet, HuT78/OX40 cells as in Example 5
T1 sequence: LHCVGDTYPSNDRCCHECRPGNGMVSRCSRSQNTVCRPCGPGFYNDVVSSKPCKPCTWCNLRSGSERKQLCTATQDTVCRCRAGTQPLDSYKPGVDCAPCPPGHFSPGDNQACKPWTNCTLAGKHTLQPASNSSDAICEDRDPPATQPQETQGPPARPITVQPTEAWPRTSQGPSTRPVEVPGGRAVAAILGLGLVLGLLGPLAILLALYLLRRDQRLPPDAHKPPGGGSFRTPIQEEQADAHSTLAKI

[2] = target: T2, recombinant OX40 protein with a His tag (Cat: 10481-H08H, Sino Biological) (UniProt P43489 29-216); assay: Biacore (SPR); antigen not named on the sheet, OX40-His as in Example 4
T2 construct: Bought protein; also called OX40-His (bought); not shown: His tag
T2 sequence (looked up): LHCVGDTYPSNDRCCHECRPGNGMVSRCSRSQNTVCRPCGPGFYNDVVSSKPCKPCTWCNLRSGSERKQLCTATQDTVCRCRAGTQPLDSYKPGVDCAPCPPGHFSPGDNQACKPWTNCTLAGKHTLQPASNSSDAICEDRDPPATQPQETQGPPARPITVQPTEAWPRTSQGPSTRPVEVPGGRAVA

[3] = target: T1, full-length human OX40 expressed on …; assay: FACS; cells not named on the sheet, HuT78/OX40 cells as in Example 5; remark: listed apart in the source
[4] = target: T2, recombinant OX40 protein with a His tag …; assay: Biacore (SPR); antigen not named on the sheet, OX40-His as in Example 4; remark: listed apart in the source
[5] = target: T1, full-length human OX40 expressed on …; assay: flow cytometry on live HuT78/OX40 cells; Mean
Procedure: (§1) To evaluate the binding activity of anti-OX40 antibodies to bind OX40 expressed on the surface of live cells, HuT78 cells were transfected with human OX40 as described in Example 1 to create an OX40 expressing line. Live HuT78/OX40 cells were seeded in 96-well plate and were incubated with a serial dilution of various anti-OX40 antibodies. Goat anti-Human IgG-FITC (Cat: A0556, Beyotime) was used as a secondary antibody to detect antibody binding to the cell surface. EC₅₀ values for dose-dependent binding to human OX40 were determined by fitting the dose-response data to the four-parameter logistic model with GraphPad Prism.

[6] = target: T1, full-length human OX40 expressed on …; assay: flow cytometry on live HuT78/OX40 cells; Test 1
Procedure: as §1

[7] = target: T2, recombinant OX40 protein with a His tag …; assay: SPR, BIAcore T-200; antibody captured by anti-human IgG, OX40-His flowed; Mean
Text: (§2) The anti-OX40 antibodies were characterized for their binding kinetics and affinity by SPR assays using BIAcore™ T-200 (GE Life Sciences). Briefly, anti-human IgG antibody was immobilized on an activated CM5 biosensorchip (Cat: BR100530, GE Life Sciences). An antibody with human IgG Fc region was flowed over the chip surface and captured by anti-human IgG antibody. Then a serial dilution of recombinant OX40 protein with a His tag (Cat: 10481-H08H, Sino Biological) was flowed over the chip surface and changes in surface plasmon resonance signals were analyzed to calculate the association rates (ka) and dissociation rates (kd) by using the one-to-one Langmuir binding model (BIA Evaluation Software, GE Life Sciences). The equilibrium dissociation constant (KD) was calculated as the ratio kd/ka.

[8] = target: T2, recombinant OX40 protein with a His tag …; assay: SPR, BIAcore T-200; antibody captured by anti-human IgG, OX40-His flowed; Test 1
Text: as §2

[9] = target: T1, full-length human OX40 expressed on …; assay: flow cytometry on live HuT78/OX40 cells; Test 2
Procedure: as §1

[10] = target: T2, recombinant OX40 protein with a His tag …; assay: SPR, BIAcore T-200; antibody captured by anti-human IgG, OX40-His flowed; Test 2
Text: as §2

B1: 445-1-2(S10T/E81D/D70E) (antibody, human IgG1, V domains shown)
VH: QVQLVQSGAEVKKPGSSVKVSCKASGYKFTSYIIHWVRQAPGQGLEWMGYINPYNDGTRYNQKFQGRVTLTSDKSTSTAYMELSSLRSEDTAVYYCARGYYGSSYAMDYWGQGTTVTVSS
VL: DIQMTQSPSTLSASVGDRVTITCSASQGISNYLNWYQQKPGKAIKLLIYDTSTLYSGVPSRFSGSGSGTEYTLTISSLQPDDFATYYCQQYSKLPYTFGGGTKVEIK
[1]
  EC50: 0.28 µg/mL
  Top(MFI): 510 MFI
[2]
  Kd: 14.9 nM
  koff: 0.0034 s⁻¹
  kon: 228000 M⁻¹ s⁻¹

B2: 445-3(Q62E)-3(S24R) (antibody, V domains shown)
VH: QVQLVQSGAEVKKPGSSVKVSCKASGYKFTSYIIHWVRQAPGQGLEWMGYINPYNEGTRYAEKFQGRVTLTADKSTSTAYMELSSLRSEDTAVYYCARGYYGSSYAMDYWGQGTTVTVSS
VL: DIQMTQSPSSLSASVGDRVTITCRASQGISNYLNWYQQKPGKAIKLLIYDASTLYSGVPSRFSGSGSGTDFTLTISSLQPEDFATYYCQQYSKLPYTFGGGTKVEIK
[3]
  EC50: 0.363 µg/mL
  Top(MFI): 760 MFI
[4]
  Kd: 11.7 nM
  koff: 0.00227 s⁻¹
  kon: 194000 M⁻¹ s⁻¹

B3: 445-1-2(S24G) (antibody, human IgG1, V domains shown)
VH: QVQLVQSGAEVKKPGSSVKVSCKASGYKFTSYIIHWVRQAPGQGLEWMGYINPYNDGTRYNQKFQGRVTLTSDKSTSTAYMELSSLRSEDTAVYYCARGYYGSSYAMDYWGQGTTVTVSS
VL: DIQMTQSPSSLSASVGDRVTITCGASQGISNYLNWYQQKPGKAIKLLIYDTSTLYSGVPSRFSGSGSGTDYTLTISSLQPEDFATYYCQQYSKLPYTFGGGTKVEIK
[1]
  EC50: 0.307 µg/mL
  Top(MFI): 470 MFI
[2]
  Kd: 16.2 nM
  koff: 0.0036 s⁻¹
  kon: 222000 M⁻¹ s⁻¹

B4: 445-3(Q62E/Q65K)-3(S24R) (antibody, V domains shown)
VH: QVQLVQSGAEVKKPGSSVKVSCKASGYKFTSYIIHWVRQAPGQGLEWMGYINPYNEGTRYAEKFKGRVTLTADKSTSTAYMELSSLRSEDTAVYYCARGYYGSSYAMDYWGQGTTVTVSS
VL: DIQMTQSPSSLSASVGDRVTITCRASQGISNYLNWYQQKPGKAIKLLIYDASTLYSGVPSRFSGSGSGTDFTLTISSLQPEDFATYYCQQYSKLPYTFGGGTKVEIK
[3]
  EC50: 0.318 µg/mL
  Top(MFI): 790 MFI
[4]
  Kd: 12.4 nM
  koff: 0.00232 s⁻¹
  kon: 187000 M⁻¹ s⁻¹

B5: 445-3-3(G41D-K42G-S24R-K93R) (antibody, V domains shown)
VH: QVQLVQSGAEVKKPGSSVKVSCKASGYKFTSYIIHWVRQAPGQGLEWMGYINPYNEGTRYNQKFQGRVTLTADKSTSTAYMELSSLRSEDTAVYYCARGYYGSSYAMDYWGQGTTVTVSS
VL: DIQMTQSPSSLSASVGDRVTITCRASQGISNYLNWYQQKPDGAIKLLIYDASTLYSGVPSRFSGSGSGTDFTLTISSLQPEDFATYYCQQYSRLPYTFGGGTKVEIK
[3]
  EC50: 0.337 µg/mL
  Top(MFI): 1050 MFI
[4]
  Kd: 7.9 nM
  koff: 0.00168 s⁻¹
  kon: 212000 M⁻¹ s⁻¹

B6: 445-3(T30S)-3(S24R) (antibody, V domains shown)
VH: QVQLVQSGAEVKKPGSSVKVSCKASGYKFSSYIIHWVRQAPGQGLEWMGYINPYNEGTRYAQKFQGRVTLTADKSTSTAYMELSSLRSEDTAVYYCARGYYGSSYAMDYWGQGTTVTVSS
VL: DIQMTQSPSSLSASVGDRVTITCRASQGISNYLNWYQQKPGKAIKLLIYDASTLYSGVPSRFSGSGSGTDFTLTISSLQPEDFATYYCQQYSKLPYTFGGGTKVEIK
[3]
  EC50: 0.405 µg/mL
  Top(MFI): 800 MFI
[4]
  Kd: 13.1 nM
  koff: 0.00381 s⁻¹
  kon: 291000 M⁻¹ s⁻¹

B7: 445-3(A61N-K63R)-3 (antibody, V domains shown)
VH: QVQLVQSGAEVKKPGSSVKVSCKASGYKFTSYIIHWVRQAPGQGLEWMGYINPYNEGTRYNQRFQGRVTLTADKSTSTAYMELSSLRSEDTAVYYCARGYYGSSYAMDYWGQGTTVTVSS
VL: DIQMTQSPSSLSASVGDRVTITCRASQGISNYLNWYQQKPDGAIKLLIYDASTLYSGVPSRFSGSGSGTDFTLTISSLQPEDFATYYCQQYSKLPYTFGGGTKVEIK
[3]
  EC50: 0.483 µg/mL
  Top(MFI): 1100 MFI
[4]
  Kd: 9.65 nM
  koff: 0.00155 s⁻¹
  kon: 161000 M⁻¹ s⁻¹

B8: 445-3(A61N-K28R)-3 (antibody, V domains shown)
VH: QVQLVQSGAEVKKPGSSVKVSCKASGYRFTSYIIHWVRQAPGQGLEWMGYINPYNEGTRYNQKFQGRVTLTADKSTSTAYMELSSLRSEDTAVYYCARGYYGSSYAMDYWGQGTTVTVSS
VL: DIQMTQSPSSLSASVGDRVTITCRASQGISNYLNWYQQKPDGAIKLLIYDASTLYSGVPSRFSGSGSGTDFTLTISSLQPEDFATYYCQQYSKLPYTFGGGTKVEIK
[3]
  EC50: 0.369 µg/mL
  Top(MFI): 1080 MFI
[4]
  Kd: 7.35 nM
  koff: 0.00115 s⁻¹
  kon: 157000 M⁻¹ s⁻¹

B9: 445-2(M48I)-1 (antibody, human IgG1, V domains shown)
VH: QVQLVQSGAEVKKPGSSVKVSCKASGYKFTSYIIHWVRQAPGQGLEWIGYINPYNDGTRYNQKFQGRVTLTSDKSTSTAYMELSSLRSEDTAVYYCARGYYGSSYAMDYWGQGTTVTVSS
VL: DIQMTQSPSSLSASVGDRVTITCSASQGISNYLNWYQQKPGKAIKLLIYDTSTLYSGVPSRFSGSGSGTDYTLTISSLQPEDFATYYCQQYSKLPYTFGGGTKVEIK
[1]
  EC50: 0.353 µg/mL
  Top(MFI): 480 MFI
[2]
  Kd: 15.5 nM
  koff: 0.00356 s⁻¹
  kon: 230000 M⁻¹ s⁻¹

B10: 445-3 IgG4 (antibody, V domains shown)
VH: QVQLVQSGAEVKKPGSSVKVSCKASGYKFTSYIIHWVRQAPGQGLEWMGYINPYNEGTRYNQKFQGRVTLTADKSTSTAYMELSSLRSEDTAVYYCARGYYGSSYAMDYWGQGTTVTVSS
VL: DIQMTQSPSSLSASVGDRVTITCRASQGISNYLNWYQQKPDGAIKLLIYDASTLYSGVPSRFSGSGSGTDFTLTISSLQPEDFATYYCQQYSKLPYTFGGGTKVEIK
[5]
  EC50: 0.263 µg/mL
  Top(MFI): 892 MFI
[6]
  EC50: 0.263 µg/mL
[7]
  Ka: 1e+08 M⁻¹
  Kd: 10 nM
[8]
  Ka: 1e+08 M⁻¹
  Kd: 10 nM

B11: ch445 (antibody, V domains shown)
VH: EVQLQQSGPELVKPGASVKMSCKASGYKFTSYIIHWVKQKPGQGLEWIGYINPYNDGTRYNEKFKGKATLTSDKSSSTAYMEYSSLTSEDSAVYYCARGYYGSSYAMDYWGQGTSVTVSS
VL: DIQMTQTTSSLSASLGDRVTISCSASQGISNYLNWYQQKPDGTIKLLIYDTSTLYSGVPSRFSGSGSGTDYFLTISNLEPEDIATYYCQQYSKLPYTFGGGTKLEKK
notes: also called Mu445 variable domains fused to human IgG1wt/kappa constant regions
[5]
  EC50: 0.299 µg/mL
  Top(MFI): 725 MFI
[6]
  EC50: 0.321 µg/mL
[9]
  EC50: 0.277 µg/mL
[7]
  Ka: 1.41e+08 M⁻¹
  Kd: 7.28 nM
[8]
  Ka: 1.22e+08 M⁻¹
  Kd: 8.26 nM
  koff: 0.00143 s⁻¹
  kon: 174000 M⁻¹ s⁻¹
[10]
  Ka: 1.59e+08 M⁻¹
  Kd: 6.3 nM
  koff: 0.00167 s⁻¹
  kon: 265000 M⁻¹ s⁻¹
